Test results: the supplement of paper PMC10567573

B1: FBXO3 (parent)
chain: FIDTYSDVGRYIDHYAAIKKAWDD

Variants of: B1
Assay: protein stability index of a GFP-peptide fusion (GPS, HEK-293T) (PSI 1-6); higher = more stable
Conditions: c terminus: a fixed tail appended
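Note: lentivirally expressed fusions sorted by FACS into six bins by GFP to DsRed ratio, PSI derived from sequencing read proportions per bin multiplied by bin number.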

Protein stability index of substitutions, site by site:
Y11: M 1.85; P 2.24; H 1.78; N 2.25; E 1.38; F 1.89; C 1.66; K 2.06; S 2.2; T 1.59; L 1.42; W 2.39; V 1.93; D 1.78; G 1.66; R 2.37; I 2; A 1.82; Q 2.06
H14: S 2.49; F 2.19; Q 1.63; E 1.84; L 1.66; T 1.71; V 2.27; G 2.11; A 2.01; Y 1.82; R 2.38; M 1.75; D 2.7; N 1.58; C 2.31; W 1.87; P 2.38; K 1.87; I 1.71
S6: H 2.06; D 1.69; W 3.09; Q 1.89; K 1.65; M 1.77; I 2.14; C 2.12; T 1.65; A 1.97; V 2.35; Y 1.54; P 2.03; N 1.83; F 1.6; R 3.1; G 1.94; L 2.17; E 1.62
D13: G 2.6; V 2.2; P 1.83; L 2.24; E 1.32; A 1.98; W 2.51; R 1.3; Q 2.7; T 1.5; S 1.84; M 2.07; K 2.1; H 2.06; I 2.88; C 1.77; Y 2.58; N 2.34
D3: S 2.06; I 2.33; E 2.14; H 1.81; G 3.01; Y 2.46; N 1.74; M 2.56; F 1.38; T 1.62; V 2.63; W 1.92; L 2.3; K 1.91; R 1.91; C 1.57; P 2.01; Q 1.82
G9: W 1.83; S 1.91; P 1.85; R 1.7; I 1.75; N 2.05; Q 2.03; F 1.9; T 1.83; L 2.22; M 3.14; D 1.57; E 2.15; C 1.65; V 1.77; K 1.85; H 1.9; A 1.62; Y 2
I18: R 1.7; N 1.46; G 2.38; V 2.16; Y 1.31; T 2.24; F 2.12; A 2.03; W 1.74; L 2.11; C 1.94; P 1.96; M 2.16; D 1.7; H 2.39; E 1.97; K 2.41; Q 1.54; S 2.13
A16: N 1.12; K 2.04; M 1.25; T 1.42; I 1.71; W 1.84; P 2.07; L 2.01; H 2.12; S 1.93; F 1.69; Q 1.81; G 2.44; E 1.89; Y 2.71; D 1.6; C 2.08; V 2.6; R 1.69
K19: F 1.84; W 2.34; S 1.02; V 1.98; L 1.92; P 1.74; T 2.38; G 1.91; H 2.68; M 3.18; R 1.16; E 1.34; Q 2.07; Y 1.64; C 1.55; D 2.46; I 2.39; A 1.37; N 1.88
A17: D 2.23; G 1.84; H 2.59; M 1.24; Y 2.6; I 1.6; E 1.72; F 3.36; S 2.38; T 1.68; R 1.98; C 1.92; K 1.92; N 1.63; V 2.18; P 2.17; L 1.83; Q 1.62; W 2
I12: F 2.09; Q 2.3; N 1.78; E 1.99; A 2.21; W 1.41; C 2.21; P 2.05; H 1.91; Y 1.98; D 1.82; S 1.32; G 2.19; T 1.93; R 2.27; K 1.76; M 1.72; L 1.97; V 2
K20: L 1.54; P 2.15; N 2.76; G 1.81; A 2.16; I 2.59; E 2.29; H 1.7; D 1.74; F 2.08; M 2.49; Q 1.68; C 2.19
Y15: W 2.08; N 1.97; Q 2.96; C 2.24; F 2.14; L 1.53; S 1.48; R 2.61; V 1.99; P 1.57; K 1.93; G 1.87; A 1.93; T 1.82; I 2.15; H 2.32; D 2.08; M 1.55; E 1.94
Y5: M 2.1; C 2.84; K 2.44; N 2.21; R 2.45; I 2.05; H 2.13; G 2.21; W 2.27; F 2.19; P 3.12; Q 2.2; A 2.25; V 2.47; S 2.5; T 2.23; L 1.96; D 2.9; E 2.8
V8: H 1.82; E 2.32; Y 1.81; Q 1.79; W 1.62; P 2.72; N 2.2; K 2.02; C 1.9; S 1.72; G 2.07; A 1.79; M 2.03; D 3.07; L 1.92; I 2.62; T 1.65; R 1.59; F 1.79
R10: T 1.83; F 2.23; K 1.82; L 1.85; Q 2.58; A 1.6; E 2.56; V 2.86; I 1.48; Y 1.75; P 1.78; S 2.1; D 2.32; C 1.9; H 1.56; G 1.92; M 1.75; N 1.88; W 1.46
D7: W 2.67; N 1.77; I 1.75; Y 2.01; K 2.19; H 1.63; T 1.68; V 2.43; E 1.48; P 2.16; G 2.33; Q 1.53; R 2.14; A 1.21; M 2.64; L 1.93; F 2.79; S 2.32; C 1.86
T4: R 2.12; C 1.55; S 1.89; L 1.89; G 3.57; A 2.41; D 2.04; W 1.37; I 1.94; H 1.88; F 2.28; M 1.89; K 1.83; V 1.91; Y 1.82; P 1.86; E 2.67; Q 1.59; N 2.02
